Changes are numbered by the printed parent chain.
Experiments:
[1] = molecular target: T1, Epstein Barr Virus (EBV) glycoprotein gp350 (Epstein-Barr virus, UniProt P03200 1-860); assay: monoclonal phage ELISA on gp350
T1 construct: Viral antigen: immunogen, coated in the ELISAs, immobilised on the CM5 chip in SPR; also called EBV gp350; gp350 antigen
T1 sequence: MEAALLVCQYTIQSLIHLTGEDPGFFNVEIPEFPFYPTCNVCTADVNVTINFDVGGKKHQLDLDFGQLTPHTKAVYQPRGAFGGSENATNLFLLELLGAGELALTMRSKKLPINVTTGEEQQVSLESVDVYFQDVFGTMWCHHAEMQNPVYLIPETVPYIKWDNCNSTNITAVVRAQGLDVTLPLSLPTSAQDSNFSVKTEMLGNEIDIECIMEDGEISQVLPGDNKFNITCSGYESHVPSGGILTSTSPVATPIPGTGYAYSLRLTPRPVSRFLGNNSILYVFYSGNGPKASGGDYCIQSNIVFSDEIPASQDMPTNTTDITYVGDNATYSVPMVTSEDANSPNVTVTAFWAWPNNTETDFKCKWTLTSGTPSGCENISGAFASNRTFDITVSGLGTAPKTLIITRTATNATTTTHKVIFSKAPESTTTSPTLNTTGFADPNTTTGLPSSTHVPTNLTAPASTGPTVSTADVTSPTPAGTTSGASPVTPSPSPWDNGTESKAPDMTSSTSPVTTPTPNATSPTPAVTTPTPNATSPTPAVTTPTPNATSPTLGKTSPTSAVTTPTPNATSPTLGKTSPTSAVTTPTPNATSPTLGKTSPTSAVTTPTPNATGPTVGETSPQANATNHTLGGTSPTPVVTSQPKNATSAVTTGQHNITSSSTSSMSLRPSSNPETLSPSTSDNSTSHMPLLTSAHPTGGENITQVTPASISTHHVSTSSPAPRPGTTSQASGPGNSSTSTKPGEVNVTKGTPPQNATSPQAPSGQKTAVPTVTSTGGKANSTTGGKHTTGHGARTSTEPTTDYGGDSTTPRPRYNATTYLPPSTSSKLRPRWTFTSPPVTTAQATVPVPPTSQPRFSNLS

[2] = molecular target: T1, Epstein Barr Virus (EBV) glycoprotein …; assay: SPR (Biacore T100), gp350 immobilised on CM5 chip, antibody as analyte, single cycle kinetics; single cycle kinetics (FIG. 10), 'KD value' in nM
[3] = molecular target: T1, Epstein Barr Virus (EBV) glycoprotein …; assay: SPR steady-state affinity plot, 1:1 Langmuir fit (FIG. 11), gp350 immobilised; given as 'affinity constant'; 'affinity constant' in M (FIG. 11)
[4] = molecular target: T1, Epstein Barr Virus (EBV) glycoprotein …; assay: SPR (Biacore T100), single cycle kinetics, gp350 immobilised on CM5 sensor chip, antibody as analyte
[5] = molecular target: T1, Epstein Barr Virus (EBV) glycoprotein …; assay: SPR (Biacore T100), steady-state affinity plot, 1:1 Langmuir fit, gp350 immobilised on CM5 sensor chip, antibody as analyte
[6] = molecular target: T1, Epstein Barr Virus (EBV) glycoprotein …; assay: SPR (Biacore T100), gp350 immobilised on CM5 chip, antibody as analyte, single cycle kinetics; single cycle kinetics (FIG. 10), dissociation constant in nM
[7] = molecular target: T1, Epstein Barr Virus (EBV) glycoprotein …; assay: SPR steady-state affinity plot, 1:1 Langmuir fit (FIG. 11), gp350 immobilised; printed as 'affinity value'; 'affinity value' in M (FIG. 11)
[8] = molecular target: T1, Epstein Barr Virus (EBV) glycoprotein …; assay: SPR (Biacore T100), gp350 immobilised on CM5 chip, antibody as analyte, single cycle kinetics; single cycle kinetics (FIG. 10), 'dissociation value' in nM
[9] = molecular target: T1, Epstein Barr Virus (EBV) glycoprotein …; assay: SPR (Biacore T100), gp350 immobilised on CM5 chip, antibody as analyte, single cycle kinetics
[10] = molecular target: T1, Epstein Barr Virus (EBV) glycoprotein …; assay: SPR steady-state affinity plot, 1:1 Langmuir fit (FIG. 11), gp350 immobilised; given as 'affinity constant'

B1: Clone A11, original phage-displayed antibody fragment (other)
VH: MQLVQSGAEVKKPGASVKVSCKTSGYNFNHQGISWLRQAPGQGLEWMGWISGFNGKTNYAQKFQGRVTMTADRSTTTAYMELRSLRSDDTAVYYCASGGEQWLVQNFVHWGQGTLLTVSS
VL: VLTQEPSLTVSPGGTVTLTCASSTGAVTSGYYPNWFQQKPGQAPRALIYSTSNKHSWTPARFSGSLLGGKAALTLSGVQPEDEAEYYCLLYYGGAWVFGGGTKLTVL
notes: The printed VH and VL begin one or two residues later than those of the other clones, so they may be cut short at the N-terminus; also called CloneA11 (phage clone)
absorbance [1]: > 1 absorbance

B2: Clone A11 recombinant human IgG1 monoclonal antibody (antibody, V domains shown)
VH: EMQLVQSGAEVKKPGASVKVSCKTSGYNFNHQGISWLRQAPGQGLEWMGWISGFNGKTNYAQKFQGRVTMTADRSTTTAYMELRSLRSDDTAVYYCASGGEQWLVQNFVHWGQGTLLTVSS
VL: ETVLTQEPSLTVSPGGTVTLTCASSTGAVTSGYYPNWFQQKPGQAPRALIYSTSNKHSWTPARFSGSLLGGKAALTLSGVQPEDEAEYYCLLYYGGAWVFGGGTKLTVLG
notes: also called Antibody A11
Kd [2]: 0.723 nM
Kd [3]: 309 nM

B3: C10 (antibody, V domains shown)
VH: EVQLVQSGAEVKKPGASVKVSCKASGYTFNAYYIHWVRQAPGQGLDWMGWINPNSGGTNYAQNFKGRVTMTRDTSISTAYLELRSLTSDDTAVYFCATERGYTSSFRRDAFDKWGQGTMLTVSS
VL: EAVVTQPPSASGTPGQGVTISCSGSSSNIGSNFVYWYQQLPGTAPKLLIYRNNQRPSGVPDRFSGSKSATSASLAISGLRSEDEADYYCATWDDSLSGYVFGTGTKLTVLG
notes: Full IgG1 form of phage clone C10, expressed in Expi293F cells; It is not in the list MOLECULES; also called Clone C10 recombinant human IgG1 monoclonal antibody; CloneC10
Kd [4]: 11.4 nM
Kd [5]: 663 nM

B4: Clone D7 recombinant human IgG1 monoclonal antibody (antibody, V domains shown)
VH: B3 VH with K19E
VL: ESVLTQPPSVSAAPGQKVTMSCSGSTSNIGSNSVSWYQHLPGTAPKLLLFDNAKRPSGIPDRFSGSKSGTSATLGITGLQTGDEADYYCGTWDSGLSVMVFGGGTKLTVLG
Kd [3]: 465 nM
Kd [6]: 3.86 nM

B5: Clone E10, original phage-displayed antibody fragment (other)
VH: B3 VH with K19E, M119L
VL: ESVLTQPPSISAAPGQRVTIPCSGSSSDIGNHYVSWYQQLPGAAPKLLIYEDNKRPSGIPDRFSGSKSGTSASLGITGLQTGDEADYYCGTWDNSLRSGFFGGGTKVTVLG
notes: also called CloneE10 (phage clone)
absorbance [1]: > 1 absorbance

B6: Clone B7, original phage-displayed antibody fragment (other)
VH: B3 VH with K19E
VL: ESVLTQPPSVSAAPGQKVTISCSGSSSNIGNNYVSWYQQLPGTAPKLLIYENNKRPSGIPDRFSGSKSGTSATLGITGLQTGDEAGYYCGTWDSSLSAVVFGGGTKLTVLG
notes: also called CloneB7 (phage clone)
absorbance [1]: > 1 absorbance

B7: Clone C10, original phage-displayed antibody fragment (other)
VH: B3 VH
VL: B3 VL
notes: also called CloneC10 (phage clone)
absorbance [1]: > 1 absorbance

B8: Clone B7 recombinant human IgG1 monoclonal antibody (antibody, V domains shown)
VH: B3 VH with K19E
VL: B6 VL
notes: also called Antibody B7
Kd [7]: 768 nM
Kd [8]: 4.07 nM

B9: Clone D7, original phage-displayed antibody fragment (other)
VH: B3 VH with K19E
VL: B4 VL
notes: also called CloneD7 (phage clone)
absorbance [1]: > 1 absorbance

B10: Clone E10 recombinant human IgG1 monoclonal antibody (antibody, V domains shown)
VH: B3 VH with K19E, M119L
VL: B5 VL
Kd [3]: 664 nM
Kd [6]: 2.23 nM

B11: Clone B8 recombinant human IgG1 monoclonal antibody (antibody, V domains shown)
VH: EVQLVESAGEVQKPGESLRISCKASGYTFSHYWIGWVRQLPGKGLEWMGIIYPDDSDSRYSPSFQGQVTMSVDKSINTAYLQWNSLKVSDTATYYCVRHWLKRGSNFGFGFDPWGQGTTLTVSS
VL: ESALTQPASVSGSPGQSITISCTGTSSDVGGYNYVSWYQQHPGKAPKLMIYDVSNRPSGVSNRFSGSKSGNTASLTISGLQAEDEADYYCSSYTSSSTLVFGGGTKLTVLG
notes: also called antibody B8
Kd [9]: 33.3 nM
Kd [10]: 829 nM

B12: Clone B8, original phage-displayed antibody fragment (other)
VH: B11 VH
VL: B11 VL
notes: VH and VL are as translated from the PCR products of the original phage clone; also called CloneB8 (phage clone)
absorbance [1]: > 1 absorbance
